{"source": "patent US20170088628A1", "about": "“Compositions and Methods for Identifying B Cell Malignancies Responsive to B Cell Depleting Therapy” (MedImmune, LLC, priority 2014, published 2017)", "molecules": {"B1": {"name": "MEDI-551: afucosylated form of the CD19 mAb anti-CD19-2, developed by humanization and affinity optimization of the HB12b mAb (antibody, chains of the INN, looked up, V domains shown)", "VH": "EVQLVESGGGLVQPGGSLRLSCAASGFTFSSSWMNWVRQAPGKGLEWVGRIYPGDGDTNYNVKFKGRFTISRDDSKNSLYLQMNSLKTEDTAVYYCARSGFITTVRDFDYWGQGTLVTVSS", "VL": "EIVLTQSPDFQSVTPKEKVTITCRASESVDTFGISFMNWFQQKPDQSPKLLIHEASNQGSGVPSRFSGSGSGTDFTLTINSLEAEDAATYYCQQSKEVPFTFGGGTKVEIK", "modifications": "afucosylated"}}, "key": {"[1]": {"system": "Chronic lymphocytic leukemia", "experiment": "CP-1019, Chronic lymphocytic leukemia patients treated with MEDI-551 or Rituximab+Bendamustine", "assay_type": "in vivo, human", "conditions": "of 22 MEDI-551-treated / 12 Rituximab-treated patients", "procedure": "miR-629 expression levels were measured in baseline peripheral blood mononucleated cell (PBMC) samples from Chronic lymphocytic leukemia patients treated with MEDI-551 or Rituximab+Bendamustine (CP-1019). • 22 MEDI-551-treated patients (10 CR/PR; 3 PD; 4 SD) • 12 Rituximab-treated patients (6 CR/PR; 2 PD; 2 SD)"}, "[2]": {"system": "diffuse large B-cell lymphoma cell lines", "experiment": "in vitro ADCC assays, high versus low sensitivity cell lines", "assay_type": "cell-based, human", "conditions": "in other cases 1000-fold or more", "from_the_text": "The following microRNAs had significant differences: miR-629; miR-99b; miR-let-7e; miR-15a; and miR-29a."}, "Karpas-422": {"system": "Karpas-422", "experiment": "in vitro Antibody-dependent cellular cytotoxicity (ADCC) assay", "assay_type": "cell-based, human", "conditions": "Karpas-422, in vitro ADCC"}, "Toledo": {"system": "Toledo", "experiment": "ADCC assay after miR-629 over-expression", "assay_type": "cell-based, human", "conditions": "miR-629 over-expressed (miR-629 mimic)", "procedure": "(§1) FIGS. 14A-D are graphs showing the results of an antibody dependent cytotoxicity (ADCC) assay. miR-629 was overexpressed in the specified cell type, and the cells were then treated with an anti-CD19 antibody (MEDI551).\n(§2) The effect of altering miR-629 on sensitivity to treatment with an anti-CD19 antibody (MEDI551) was explored. Human leukemia and lymphoma cell lines Daudi, Toledo, and RL were obtained from American Type Culture Collection (ATCC); Karpas 1106P, Karpas 422, OCI-Ly-19, MEC2 were obtained from Deutsche Sammlung von Mikroorganismen und Zellkulturen (DSMZ, Germany). Cell lines were transfected with […] of a miR-629 mimic (Karpas 1106P, Karpas 422, Daudi, MEC2, OCI-Ly-19, SU-DHL-6, and Toledo), a miR-629 hairpin inhibitor (RL and ARH-77), or respective negative control oligonucleotides (all from Dharmacon) using PrimeFect (Lonza) for 24 hours. CD19 and CD20 surface expression was determined by flow cytometry (LSRII, BD Biosciences) using their respective fluorescently labeled monoclonal antibodies. Surface expression is reported as mean fluorescent intensity (MFI) and was averaged for untransfected as well as miR-629 and negative control transfected cells."}, "MEC-2": {"system": "MEC-2", "experiment": "ADCC assay after miR-629 over-expression", "assay_type": "cell-based, human", "conditions": "MEC-2, miR-629 over-expressed (miR-629 mimic)", "procedure": "as §1, §2"}, "Daudi": {"system": "Daudi", "experiment": "ADCC assay after miR-629 over-expression", "assay_type": "cell-based, human", "conditions": "miR-629 over-expressed (miR-629 mimic)", "procedure": "as §1, §2"}, "SU-DHL-6": {"system": "SU-DHL-6", "experiment": "ADCC assay after miR-629 over-expression", "assay_type": "cell-based, human", "conditions": "SU-DHL-6, miR-629 over-expressed (miR-629 mimic)", "procedure": "as §1, §2"}, "Oci-Ly-19": {"system": "Oci-Ly-19", "experiment": "in vitro ADCC assay", "assay_type": "cell-based, human", "conditions": "Oci-Ly-19, in vitro ADCC"}, "RL": {"system": "RL", "experiment": "in vitro ADCC assay", "assay_type": "cell-based, human"}, "Toledo cell lines": {"system": "Toledo cell lines", "experiment": "in vitro ADCC assay", "assay_type": "cell-based, human"}, "[3]": {"conditions": "afucosylated mAb relative to mAb anti-CD19-2; cited from earlier work"}, "SUD-HL-6": {"system": "SUD-HL-6", "experiment": "in vitro ADCC assay", "assay_type": "cell-based, human", "conditions": "SUD-HL-6, in vitro ADCC"}, "[4]": {"system": "DB (diffuse large cell lymphoma)", "experiment": "in vitro ADCC assay", "assay_type": "cell-based, human"}, "[5]": {"system": "Relapsed or Refractory Advanced B-Cell Malignancies", "experiment": "Clinical Trial No. CP204, Phase 1 dose-escalation study of MEDI-551 as a single agent", "assay_type": "in vivo, human", "procedure": "miR-629 expression levels were measured in baseline whole blood samples from diffuse large B cell lymphoma (DLBCL), follicular lymphoma (FL), and Chronic lymphocytic leukemia (CLL) patients treated with an anti-CD19 antibody treatment as a single agent in Clinical Trial No. CP204, A Phase 1, Dose-escalation Study of MEDI-551, a Humanized Monoclonal Antibody Directed Against CD19, in Adult Subjects With Relapsed or Refractory Advanced B-Cell Malignancies."}, "[6]": {"system": "Karpas 422 cells expressing miR-629", "experiment": "in vitro ADCC in miR-629 over-expressing cells", "assay_type": "cell-based, human", "conditions": "miR-629 over-expression vs vector control", "procedure": "FIGS. 12A and 12B are graphs. […] LDH release has been a known prognostic factor in lymphoma for many years and is measured routinely in clinical practice. […] Therefore, it is likely that miR-629 expression levels are related to the aggressiveness of the tumor. This could, in part, explain the correlation between miR-629 and response to MEDI-551.\nThe diffuse large B-cell lymphoma cell line Karpas-422 was transduced with a lentiviral vector over-expressing miR-629 or a scrambled miRNA control (Open Biosystems, Huntsville, Ala.) at an MOI of 2-20. Transduced cells were expanded for 1-2 weeks. Utilizing RFP, cells were sorted by fluorescence-activated cell sorting (FACS) into high miR-629 and low miR-629 populations. Clones were also generated using the limiting dilution method. Over-expression of miR-629 was evaluated by TaqMan QPCR."}, "ARH-77": {"system": "ARH-77", "experiment": "in vitro ADCC assay", "assay_type": "cell-based, human", "conditions": "ARH-77, in vitro ADCC"}, "FccRIIIA": {"target": "FccRIIIA (Homo sapiens, UniProt P08637)", "sequence (P08637 17-254)": "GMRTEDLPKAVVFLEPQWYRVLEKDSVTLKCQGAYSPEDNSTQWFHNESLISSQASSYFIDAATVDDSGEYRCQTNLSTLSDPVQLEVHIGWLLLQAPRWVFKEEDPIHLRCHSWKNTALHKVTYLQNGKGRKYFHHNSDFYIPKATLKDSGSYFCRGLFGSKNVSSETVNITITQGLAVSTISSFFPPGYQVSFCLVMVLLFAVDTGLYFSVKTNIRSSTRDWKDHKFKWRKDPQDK", "conditions": "afucosylated mAb relative to mAb anti-CD19-2; cited from earlier work"}}, "data": [{"molecule": "Rituximab: anti-CD20 antibody therapy used as comparator [reference compound]", "values": [{"measurement": "CR/PR, number of patients", "setting": "[1]", "value": 6}, {"measurement": "PD, number of patients", "setting": "[1]", "value": 2}]}, {"molecule": "B1", "values": [{"measurement": "EC50s for the high sensitivity cell lines lower than the low sensitivity cell lines", "setting": "[2]", "value": "at least 100 fold"}, {"measurement": "sensitivity to anti-CD19 antibody treatment", "setting": "Karpas-422", "value": "highly sensitive"}, {"measurement": "sensitivity to anti-CD19 antibody treatment", "setting": "Karpas-422; listed as anti-CD19 antibody", "value": "high sensitivity"}, {"measurement": "difference in cytotoxicity", "setting": "Toledo", "value": "15-20%"}, {"measurement": "reduced sensitivity to anti-CD19 antibody", "setting": "MEC-2", "value": "15-25%"}, {"measurement": "reduced sensitivity to anti-CD19 antibody", "setting": "Daudi", "value": "15-25%"}, {"measurement": "difference in cytotoxicity", "setting": "SU-DHL-6", "value": "15-20%"}, {"measurement": "sensitivity to anti-CD19 antibody treatment", "setting": "Oci-Ly-19", "value": "high sensitivity"}, {"measurement": "sensitivity to anti-CD19 antibody treatment", "setting": "RL", "value": "low sensitivity"}, {"measurement": "sensitivity to anti-CD19 antibody treatment", "setting": "Toledo cell lines", "value": "high sensitivity"}, {"measurement": "CR/PR, number of patients", "setting": "[1]", "value": 10}, {"measurement": "PD, number of patients", "setting": "[1]", "value": 3}, {"measurement": "ADCC activity", "setting": "[3]", "value": "enhanced"}, {"measurement": "sensitivity to anti-CD19 antibody treatment", "setting": "SUD-HL-6", "value": "high sensitivity"}, {"measurement": "sensitivity to anti-CD19 antibody treatment", "setting": "[4]", "value": "low sensitivity"}, {"measurement": "CR/PR (complete or partial response), number of patients", "setting": "[5]; Chronic lymphocytic leukemia", "value": 3}, {"measurement": "PD (progressive disease), number of patients", "setting": "[5]; Chronic lymphocytic leukemia", "value": 3}, {"measurement": "CR/PR (complete or partial response), number of patients", "setting": "[5]; diffuse large B-cell lymphoma", "value": 5}, {"measurement": "PD (progressive disease), number of patients", "setting": "[5]; diffuse large B-cell lymphoma", "value": 10}, {"measurement": "CR/PR (complete or partial response), number of patients", "setting": "[5]; follicular lymphoma", "value": 6}, {"measurement": "PD (progressive disease), number of patients", "setting": "[5]; follicular lymphoma", "value": 2}, {"measurement": "shift in Ec50 for anti-CD19 antibody treatment in in vitro ADCC", "setting": "[6]", "value": "slight shift"}, {"measurement": "sensitivity to anti-CD19 antibody treatment", "setting": "ARH-77", "value": "low sensitivity"}, {"measurement": "affinity to FccRIIIA", "setting": "FccRIIIA", "value": "increased"}]}]}
